# Positions of bridges follow the written chain, without caps; N, C: chain ends. Non-standard residues stand in square brackets, D forms with d. Residues, ends and D or L forms follow the SMILES beside them. Triazole bridges read from a SMILES are 1,4-linked. Lys(N3) = [N-]=[N+]=NCCCC[C@H](N)C(=O)O; Cha = N[C@@H](CC1CCCCC1)C(=O)O; Pra = C#CC[C@H](N)C(=O)O
# T1: full-length human muscarinic 1 receptor with a FLAG tag at the N-terminus (human, UniProt P11229 1-460)
# T1 sequence: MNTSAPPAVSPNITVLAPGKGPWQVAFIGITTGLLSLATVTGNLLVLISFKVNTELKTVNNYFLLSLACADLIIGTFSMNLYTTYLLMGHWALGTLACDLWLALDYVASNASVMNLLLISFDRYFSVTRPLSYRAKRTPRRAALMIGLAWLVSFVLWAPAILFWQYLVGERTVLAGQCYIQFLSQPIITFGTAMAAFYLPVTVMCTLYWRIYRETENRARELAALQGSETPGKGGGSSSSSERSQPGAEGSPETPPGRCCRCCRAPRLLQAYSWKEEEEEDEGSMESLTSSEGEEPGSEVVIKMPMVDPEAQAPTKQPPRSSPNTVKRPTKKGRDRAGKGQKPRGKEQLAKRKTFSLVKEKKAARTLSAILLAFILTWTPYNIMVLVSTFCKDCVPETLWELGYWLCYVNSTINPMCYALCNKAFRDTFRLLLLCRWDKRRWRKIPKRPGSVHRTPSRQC
# Legend:
# [1] = system: HEK293 cells overexpressing the ghrelin receptor; test: Fluorescence microscopy of cell permeability; format: cell-based, human; settings: 5 μM, 3 h 45 min, 37° C.
# Protocol: To visualise cell-penetration of the peptides, HEK293 1C8 cells were seeded in 12-well plates, covered with a coverslip, at 120,000 cells/well. After overnight incubation (37° C., 5% CO2), cells were washed with PBS and treated with the fluorescently labeled peptides for 2 h45. Next, BG-fluorescein was added to the mixture, for Snap tag labeling of the cell-surface GHSR. After incubation of 1 h the cells were washed four times with PBS. Cells were then fixed using 4% paraformaldehyde in PBS for 5 min and washed two times with PBS. Finally, Hoechst was diluted 1/1000 in PBS, added to the fixed cells during 10 min, and washed thrice with PBS.
# The cells for permeabilization were first incubated with BG-fluorescein during 1 h, followed by four times washing with PBS. The cells were then fixed with 4% paraformaldehyde in PBS for 5 min washed twice. Afterwards, the cells were permeabilized with Triton 0.1% in PBS during 5 min and washed thrice. Finally, the cells were incubated for 3 h 45 with the peptide and washed three times before Hoechst was added for 10 min.
# The SulfoCy5-labeled Gq/11 peptidomimetics of Example 5 were also analyzed by fluorescence microscopy to investigate their cell membrane permeability. HEK293 cells overexpressing the ghrelin receptor were seeded overnight on microscope slides. The cells were incubated with 5 μM of SulfoCy5-labeled Gq/11 peptidomimetics for 3 h 45 min at 37° C., followed by Hoechst staining for visualizing the nucleus. The cell membrane was visualized by staining the cell surface ghrelin receptors with fluorescein.
# [2] = biological target: purified bimane labeled ghrelin receptor (human, cysmin mutant, in lipidated nanodiscs) (human) (UniProt Q92847); test: cell-based or functional assay
# Sequence of purified bimane labeled ghrelin receptor (human, cysmin mutant, in lipidated nanodiscs) (human) (Q92847 other isoform, or with tags, fused parts or gaps mutant): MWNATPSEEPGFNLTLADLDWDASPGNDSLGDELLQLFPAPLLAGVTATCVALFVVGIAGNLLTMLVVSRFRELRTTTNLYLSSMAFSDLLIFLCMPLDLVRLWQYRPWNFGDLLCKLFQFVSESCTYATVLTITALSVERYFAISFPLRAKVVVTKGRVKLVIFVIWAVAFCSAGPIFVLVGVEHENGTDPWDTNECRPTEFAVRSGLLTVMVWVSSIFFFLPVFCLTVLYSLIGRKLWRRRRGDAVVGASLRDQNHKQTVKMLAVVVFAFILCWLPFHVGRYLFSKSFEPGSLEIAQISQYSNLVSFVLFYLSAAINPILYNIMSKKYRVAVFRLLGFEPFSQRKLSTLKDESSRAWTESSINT
# MTT cytotoxicity assay = format: cell-based, human; settings: human, HEK293 1C8 cells, 3 h 45 min, read-out: cell viability
# Protocol: (§1) Cells were washed two times with PBS and incubated with 3-(4,5-dimethylthiazol-2-yl)-2,5-diphenyltetrazolium bromide (MTT) during 3 h, at 37° C. Afterwards, cells were washed once with PBS and then incubated for 10 min with DMSO. Plates were analysed with a Tecan Spark 10 M microplate reader.
# (§2) An MTT assay was used to assess the cytotoxicity of the non-fluorescent Gq/11 peptidomimetics of Example 5. An MTT assay is a colorimetric test that evaluates the cell metabolic activity and reflects the cell viability.
# HEK293 1C8 cells = test: MTT cytotoxicity assay; format: cell-based, human; settings: varying concentrations up to 40 μM, 3 h 45 min
# Protocol: as §1, §2
# [3] = biological target: T1, full-length human muscarinic 1 receptor …; test: cell-based or functional assay
# [4] = biological target: T2, ghrelin receptor overexpressed on HEK293 cells (UniProt Q92847 1-366, limits assumed); test: cell-based or functional assay
# T2 sequence (Q92847 whole entry): as the sequence (Q92847 other isoform, or with tags, fused parts or gaps mutant) above, with S146C, S304C counted along it
# [5] = biological target: T2, ghrelin receptor overexpressed on …; test: cell-based or functional assay; remark: listed apart in the source
# Sequence of purified Gαqβ1γ2 heterotrimer (P50148 whole entry): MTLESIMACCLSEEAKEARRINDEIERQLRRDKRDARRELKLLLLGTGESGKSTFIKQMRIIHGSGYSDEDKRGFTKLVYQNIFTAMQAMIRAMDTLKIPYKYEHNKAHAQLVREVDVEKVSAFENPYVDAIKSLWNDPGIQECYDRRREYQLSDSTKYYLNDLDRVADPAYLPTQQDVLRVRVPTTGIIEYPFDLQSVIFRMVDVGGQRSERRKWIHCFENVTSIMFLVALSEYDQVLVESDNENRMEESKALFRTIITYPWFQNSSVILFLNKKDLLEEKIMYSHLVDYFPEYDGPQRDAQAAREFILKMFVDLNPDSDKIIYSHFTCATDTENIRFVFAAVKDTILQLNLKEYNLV
# Sequence of purified Gαqβ1γ2 heterotrimer (P62873 2-340, further chain): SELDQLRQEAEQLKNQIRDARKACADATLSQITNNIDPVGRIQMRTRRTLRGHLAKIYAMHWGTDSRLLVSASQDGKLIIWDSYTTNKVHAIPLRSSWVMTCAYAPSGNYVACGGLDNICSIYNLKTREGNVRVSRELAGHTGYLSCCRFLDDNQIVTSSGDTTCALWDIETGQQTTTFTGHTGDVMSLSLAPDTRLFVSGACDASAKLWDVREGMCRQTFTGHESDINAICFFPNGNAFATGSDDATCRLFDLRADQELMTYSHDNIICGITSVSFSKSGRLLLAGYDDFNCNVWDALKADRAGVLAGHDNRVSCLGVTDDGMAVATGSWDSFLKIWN
# Sequence of purified Gαqβ1γ2 heterotrimer (P59768 2-68, further chain): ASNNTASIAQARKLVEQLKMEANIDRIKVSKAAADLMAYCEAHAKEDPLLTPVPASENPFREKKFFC
molecule,measurement,setting,value
H-C(SulfoCy5)-Ahx-RRWWRRWRRFAc[PraVKDAzk]ILQLNLKEYNLV-OH [SBL-GQ-24],SulfoCy5-labeled peptide observed inside cells,[1],entered cells
purified Gαqβ1γ2 heterotrimer,"bimane maximum emission wavelength, with agonist JMV1843",[2],480 nm
CC[C@H](C)[C@H](NC(=O)[C@@H]1CCCCn2cc(nn2)C[C@H](NC(=O)[C@H](C)NC(=O)[C@H](Cc2ccccc2)NC(=O)[C@H](CCCNC(=N)N)NC(=O)[C@H](CCCNC(=N)N)NC(=O)[C@H](Cc2c[nH]c3ccccc23)NC(=O)[C@H](CCCNC(=N)N)NC(=O)[C@H](CCCNC(=N)N)NC(=O)[C@H](Cc2c[nH]c3ccccc23)NC(=O)[C@H](Cc2c[nH]c3ccccc23)NC(=O)[C@H](CCCNC(=N)N)NC(=O)[C@@H](N)CCCNC(=N)N)C(=O)N[C@@H](C(C)C)C(=O)N[C@@H](CCCCN)C(=O)N[C@@H](CC(=O)O)C(=O)N1)C(=O)N[C@@H](CC(C)C)C(=O)N[C@@H](CCC(N)=O)C(=O)N[C@@H](CC(C)C)C(=O)N[C@@H](CC(N)=O)C(=O)N[C@@H](CC(C)C)C(=O)N[C@@H](CCCCN)C(=O)N[C@@H](CCC(=O)O)C(=O)N[C@@H](Cc1ccc(O)cc1)C(=O)N[C@@H](CC(N)=O)C(=O)N[C@@H](CC(C)C)C(=O)N[C@H](C(=O)O)C(C)C [SBL-GQ-25] (H-RRWWRRWRRFA[Pra]VKD[Lys(N3)]ILQLNLKEYNLV-OH; triazole 12-16),viability at 5 µM,MTT cytotoxicity assay,~90%
same,viability at 10 µM,MTT cytotoxicity assay,~85%
same,viability at 40 µM,MTT cytotoxicity assay,~50%
CC[C@H](C)[C@H](NC(=O)[C@@H]1CCCCn2cc(nn2)C[C@H](NC(=O)[C@H](C)NC(=O)[C@H](Cc2ccccc2)NC(=O)[C@H](CCCCN)NC(=O)[C@H](CCCCN)NC(=O)[C@@H](N)CCCCN)C(=O)N[C@@H](C(C)C)C(=O)N[C@@H](CCCCN)C(=O)N[C@@H](CC(=O)O)C(=O)N1)C(=O)N[C@@H](CC(C)C)C(=O)N[C@@H](CCC(N)=O)C(=O)N[C@@H](CC(C)C)C(=O)N[C@@H](CC(N)=O)C(=O)N[C@@H](CC(C)C)C(=O)N[C@@H](CCCCN)C(=O)N[C@@H](CCC(=O)O)C(=O)N[C@@H](Cc1ccc(O)cc1)C(=O)N[C@@H](CC(N)=O)C(=O)N[C@@H](CC(C)C)C(=O)N[C@H](C(=O)O)C(C)C [SBL-GQ-13] (H-KKKFA[Pra]VKD[Lys(N3)]ILQLNLKEYNLV-OH; triazole 6-10),cytotoxicity / viability,HEK293 1C8 cells,No cytotoxicity
H-C(SulfoCy5)-Ahx-RRRRRRRRFAc[PraVKDAzk]ILQLNLKEYNLV-OH [SBL-GQ-23],SulfoCy5-labeled peptide observed inside cells,[1],entered cells
dynorphin [reference compound],SulfoCy5-labeled peptide observed inside cells,[1],very little or no
CC[C@H](C)[C@H](NC(=O)[C@@H]1CCCCn2cc(nn2)C[C@H](NC(=O)[C@H](C)NC(=O)[C@H](Cc2ccccc2)NC(=O)[C@H](CCCNC(=N)N)NC(=O)[C@H](CCCNC(=N)N)NC(=O)[C@H](CCCNC(=N)N)NC(=O)[C@H](CCCNC(=N)N)NC(=O)[C@H](CCCNC(=N)N)NC(=O)[C@H](CCCNC(=N)N)NC(=O)[C@H](CCCNC(=N)N)NC(=O)[C@@H](N)CCCNC(=N)N)C(=O)N[C@@H](C(C)C)C(=O)N[C@@H](CCCCN)C(=O)N[C@@H](CC(=O)O)C(=O)N1)C(=O)N[C@@H](CC(C)C)C(=O)N[C@@H](CCC(N)=O)C(=O)N[C@@H](CC(C)C)C(=O)N[C@@H](CC(N)=O)C(=O)N[C@@H](CC(C)C)C(=O)N[C@@H](CCCCN)C(=O)N[C@@H](CCC(=O)O)C(=O)N[C@@H](Cc1ccc(O)cc1)C(=O)N[C@@H](CC(N)=O)C(=O)N[C@@H](CC(C)C)C(=O)N[C@H](C(=O)O)C(C)C [SBL-GQ-15] (H-RRRRRRRRFA[Pra]VKD[Lys(N3)]ILQLNLKEYNLV-OH; triazole 11-15),viability at 5 µM,MTT cytotoxicity assay,~90%
same,viability at 10 µM,MTT cytotoxicity assay,~70%
same,viability at 40 µM,MTT cytotoxicity assay,~50%
H-C(SulfoCy5)-Ahx-RRRRFAc[PraVKDAzk]ILQLNLKEYNLV-OH [SBL-GQ-22],SulfoCy5-labeled peptide observed inside cells,[1],very little or no
H-C(SulfoCy5)-Ahx-KKKFAc[PraVKDAzk]ILQLNLKEYNLV-OH [SBL-GQ-21],SulfoCy5-labeled peptide observed inside cells,[1],very little or no
Ac-KKKFN[Pra]CKD[Lys(N3)]ILQMNLREYN[Cha]V-OH (triazole 6-10) [SBL-GQ-12],"bimane maximum emission wavelength, with agonist JMV1843",[2],478 nm
same,"IC50 (µM) of the agonist acetylcholine chloride for the M1 receptor in the presence of the peptidomimetic, RLA",[3],13.7 µM
same,"Shift (IC50 ratio without/with peptidomimetic), RLA",[3],34
Ac-KKKFA[Pra]VKD[Lys(N3)]ILQLNLKEYNLV-OH (triazole 6-10) [SBL-GQ-05],"bimane emission as percent of the effect of the Gq protein, highest peptide concentrations",[2],90%
same,"bimane maximum emission wavelength, with agonist JMV1843",[2],478 nm
same,"IC50 (µM) of the agonist acetylcholine chloride for the M1 receptor in the presence of the peptidomimetic, RLA",[3],330 µM
same,"Shift (IC50 ratio without/with peptidomimetic), RLA",[3],1
same,"EC50 (M) of the MK0677 agonist, IP-One Gq assay, peptidomimetic at 10 µM, n = 1",[4],9.99e-10 M
same,"EC50 (M) of the MK0677 agonist, IP-One Gq assay, peptidomimetic at 10 µM, n = 2",[4],1.53e-10 M
same,"EC50 (M) of the MK0677 agonist, IP-One Gq assay, peptidomimetic at 10 µM, n = 3",[4],1.1e-10 M
Ac-KKKFAAVKDTILQLNLKEYN[Cha]V-OH (SMILES CC[C@H](C)[C@H](NC(=O)[C@@H](NC(=O)[C@H](CC(=O)O)NC(=O)[C@H](CCCCN)NC(=O)[C@@H](NC(=O)[C@H](C)NC(=O)[C@H](C)NC(=O)[C@H](Cc1ccccc1)NC(=O)[C@H](CCCCN)NC(=O)[C@H](CCCCN)NC(=O)[C@H](CCCCN)NC(C)=O)C(C)C)[C@@H](C)O)C(=O)N[C@@H](CC(C)C)C(=O)N[C@@H](CCC(N)=O)C(=O)N[C@@H](CC(C)C)C(=O)N[C@@H](CC(N)=O)C(=O)N[C@@H](CC(C)C)C(=O)N[C@@H](CCCCN)C(=O)N[C@@H](CCC(=O)O)C(=O)N[C@@H](Cc1ccc(O)cc1)C(=O)N[C@@H](CC(N)=O)C(=O)N[C@@H](CC1CCCCC1)C(=O)N[C@H](C(=O)O)C(C)C) [SBL-GQ-04],"IC50 (µM) of the agonist acetylcholine chloride for the M1 receptor in the presence of the peptidomimetic, RLA",[3],213 µM
same,"Shift (IC50 ratio without/with peptidomimetic), RLA",[3],4
same,"EC50 (M) of the MK0677 agonist, IP-One Gq assay, peptidomimetic at 10 µM, n = 1",[4],4.42e-10 M
same,"EC50 (M) of the MK0677 agonist, IP-One Gq assay, peptidomimetic at 10 µM, n = 2",[4],9.46e-11 M
same,"EC50 (M) of the MK0677 agonist, IP-One Gq assay, peptidomimetic at 10 µM, n = 3",[4],9.87e-11 M
same,"EC50 (M) of the MK0677 agonist, IP-One Gq assay, SBL-GQ-04 5 µM, n = 1",[5],3.18e-10 M
same,"EC50 (M) of the MK0677 agonist, IP-One Gq assay, SBL-GQ-04 5 µM, n = 2",[5],1.41e-10 M
H-RRRRRRRRFA[Pra]VKD[Lys(N3)]ILQLNLKEYNLV-OH (triazole 11-15) [SBL-GQ-15],"EC50 (M) of the MK0677 agonist, IP-One Gq assay, peptidomimetic at 10 µM, n = 1",[4],2.75e-10 M
same,"EC50 (M) of the MK0677 agonist, IP-One Gq assay, peptidomimetic at 10 µM, n = 2",[4],1.07e-10 M
same,"EC50 (M) of the MK0677 agonist, IP-One Gq assay, peptidomimetic at 10 µM, n = 3",[4],7.18e-11 M
same,"EC50 (M) of the MK0677 agonist, IP-One Gq assay, SBL-GQ-15 5 µM, n = 1",[5],2.55e-10 M
same,"EC50 (M) of the MK0677 agonist, IP-One Gq assay, SBL-GQ-15 5 µM, n = 2",[5],8.07e-11 M
Ac-KKKFN[Pra]CKD[Lys(N3)]ILQMNLREYNLV-OH (triazole 6-10) [SBL-GQ-11],"bimane maximum emission wavelength, with agonist JMV1843",[2],478 nm
same,"IC50 (µM) of the agonist acetylcholine chloride for the M1 receptor in the presence of the peptidomimetic, RLA",[3],57.7 µM
same,"Shift (IC50 ratio without/with peptidomimetic), RLA",[3],7
H-RRWWRRWRRFA[Pra]VKD[Lys(N3)]ILQLNLKEYNLV-OH (triazole 12-16) [SBL-GQ-25],"EC50 (M) of the MK0677 agonist, IP-One Gq assay, SBL-GQ-25 5 µM, n = 1",[5],7.82e-10 M
same,"EC50 (M) of the MK0677 agonist, IP-One Gq assay, SBL-GQ-25 5 µM, n = 2",[5],1.7e-10 M
same,"EC50 (M) of the MK0677 agonist, IP-One Gq assay, SBL-GQ-25 10 µM, n = 1",[5],1.54e-09 M
same,"EC50 (M) of the MK0677 agonist, IP-One Gq assay, SBL-GQ-25 10 µM, n = 2",[5],4.65e-10 M
Ac-KKKFA[Pra]VKD[Lys(N3)]ILQLNLKEYN[Cha]V-OH (triazole 6-10) [SBL-GQ-06],"bimane maximum emission wavelength, with agonist JMV1843",[2],478 nm
same,"IC50 (µM) of the agonist acetylcholine chloride for the M1 receptor in the presence of the peptidomimetic, RLA",[3],54.4 µM
same,"Shift (IC50 ratio without/with peptidomimetic), RLA",[3],8
